Assay results from patent US20180043006A1 (UNIVERSITY OF VIRGINIA PATENT FOUNDATION, published 2018).

B1: RV-A16 VP2P21 peptide epitope (peptide)
peptide: NEKQPSDDNWLNFDGTLLGN
notes: 20mer from the overlapping RV-A16 VP2 peptide library, loaded on HLA-DR tetramers
B2: RV-A39 VP2169-188 peptide epitope (peptide)
peptide: SDDNWLNFDGTLLGNLLIFP
notes: Residues 169-188 of RV-A39 VP2; also called RV-A39 VP2 peptide
B3: RV-A16 VP1P23 peptide epitope (peptide)
peptide: PRFSLPFLSIASAYYMFYDG
notes: 20mer from the overlapping RV-A16 VP1 peptide library, loaded on HLA-DR tetramers

Assays:
[1] = target: T1, HLA-DR molecule DRB1*0401 (human); test: peptide displayed on HLA-DR tetramer, ex vivo staining of PBMCs
T1 construct: Used as a PE-conjugated peptide/MHCII tetramer assembled by a cited method
From the text: Biologically relevant pMHCII complexes were identified by tetramer-guided epitope mapping (TGEM). This involved 2 steps: First, PBMC cultures established from subjects with known HLA-DR types were stimulated with RV peptide pools derived from VP1, VP2, or VP4, and then stained with pMHCII tetramer pools composed of HLA-DR molecules corresponding to those expressed in the test subject; Second, positive signals were de-convoluted by repeating and staining with single-peptide tetramers.
All experiments were performed in subjects expressing HLA-DR molecules corresponding to the selected tetramer. Precursor frequencies of circulating tetramer+ cells were then calculated by established methods [43]. Tetramer+ cells were phenotyped for surface markers by staining PBMCs with PE-conjugated tetramers, labeling with anti-PE magnetic beads, enriching with an AutoMACS separator (Miltenyi Biotec, Auburn, Calif., USA), and then counterstaining for surface markers. […] For simplicity, identified RV-A16 peptide epitopes were given a numerical designation.

[2] = target: T1, HLA-DR molecule DRB1*0401; test: peptide displayed on HLA-DR tetramer, ex vivo staining
[3] = target: T2, HLA-DR molecule DRB1*0701 (human); test: peptide displayed on HLA-DR tetramer (TGEM)
T2 construct: Used as a PE-conjugated peptide/MHCII tetramer assembled by a cited method

[4] = target: T3, HLA-DR molecule DRB1*0101 (human); test: peptide displayed on HLA-DR tetramer (TGEM)
T3 construct: Used as a PE-conjugated peptide/MHCII tetramer assembled by a cited method

Binder | binding result [2] | binding result [4] | further results
B1 |  |  | binding result [1]: binds
B2 | binds |  | 
B3 |  | binds | binding result [3]: binds
AQVRRKFEMFTYVRFDSEIT [RV-A39 VP1105-124 peptide epitope] | binds |  | 
PHQFINLRSNNSATLIVPYV [RV-A16 VP2P24 peptide epitope] |  | binds | 
